Laboratory results published in the supplement of paper PMC10266784.

B1: library; numbered along this chain (parent)
chain: MAAAAAAAAEQQSSNGPVKKSMREKAVERRSVNKEHNSNFKAGYIPIDEDRLHKTGLRGRKGNLAICVIILLFILAVINLIITLVIWAVIRIGPNGCDSMEFHESGLLRFKQVSDMGVIHPLYKSTVGGRRNENLVITGNNQPIVFQQGTTKLSVENNKTSITSDIGMQFFDPRTQNILFSTDYETHEFHLPSGVKSLNVQKASTERITSNATSDLNIKVDGRAIVRGNEGVFIMGKTIEFHMGGNMELKAENSIILNGSVMVSTTRLPSSSSGDQLGSGDWVRYKLCMCADGTLFKVQVTSQNMGCQISDNPCGNTH

Variants of: B1
Assay: SGCB cell-surface expression functional score (HA stain, bin4 vs bin1, normalised to synonymous) (log10 ratio); higher = more cell-surface SGCB (functional)
How it was run: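 Codon-saturation libraries of HA-tagged, YFP-fused human beta-sarcoglycan were lentivirally transduced at MOI <0.1 into HEK293 cells stably expressing alpha-, gamma- and delta-sarcoglycan. YFP-positive cells were sorted after 72 hours, grown 5–7 days, stained on ice with Alexa Fluor 647 anti-HA, fixed, sorted into four 5% intensity bins and amplicon-sequenced. The functional score is the log ratio of highest-bin to lowest-bin variant frequency, taken as the median over codons and duplicate transductions. Synonymous variants were scaled per section to mean 0, SD 0.5.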
With MAAAAAAAAEQQSSNGPVKKSMREKAVERRSVNKEHNSNFKAGYIPIDEDRLHKTGLRGRKGNLAICVIILLFILAVINLIITLVIWAVIRIGPNGCDSMEFHESGLLRFKQVSDMGVIHPLYKSTVGGRRNENLVITGNNQPIVFQQGTTKLSVENNKTSITSDIGMQFFSPRTQNILFSTDYETHEFHLPSGVKSLNVQKASTERITSNATSDLNIKVDGRAIVRGNEGVFIMGKTIEFHMGGNMELKAENSIILNGSVMVSTTRLPSSSSGDQLGSGDWVRYKLCMCADGTLFKVQVTSQNMGCQISDNPCGNTH [D172S] the “SGCB cell-surface expression functional score (log10)” value was 0.68. In the case of MAAAAAAAAEQQSSNGPVKKSMREKAVERRSVNKEHNSNFKAGYIPIDEDRLHKTGLRGRKGNLAICVIILLFILAVINLIITLVIWAVIRIGPNGCDSMEFHESGLLRFKQVSDMGVIHPLYKSTVGGRRNENLVITGNNQPIVFQQGTTKLSVENNKTSITSDIGMQFFRPRTQNILFSTDYETHEFHLPSGVKSLNVQKASTERITSNATSDLNIKVDGRAIVRGNEGVFIMGKTIEFHMGGNMELKAENSIILNGSVMVSTTRLPSSSSGDQLGSGDWVRYKLCMCADGTLFKVQVTSQNMGCQISDNPCGNTH [D172R], the “SGCB cell-surface expression functional score (log10)” value is reported as -0.58. In the case of MAAAAAAAAEQQSSNGPVKKSMREKAVERRSVNKEHNSNFKAGYIPIDEDRLHKTGLRGRKGNLAICVIILLFILAVINLIITLVIWAVIRIGPNGCDSMEFHESGLLRFKQVSDMGVIHPLYKSTVGGRRNENLVITGNNQPIVFQQGTTKLSVENNKTSITSDIGMQFFMPRTQNILFSTDYETHEFHLPSGVKSLNVQKASTERITSNATSDLNIKVDGRAIVRGNEGVFIMGKTIEFHMGGNMELKAENSIILNGSVMVSTTRLPSSSSGDQLGSGDWVRYKLCMCADGTLFKVQVTSQNMGCQISDNPCGNTH [D172M], the “SGCB cell-surface expression functional score (log10)” value is reported as 0.46. For MAAAAAAAAEQQSSNGPVKKSMREKAVERRSVNKEHNSNFKAGYIPIDEDRLHKTGLRGRKGNLAICVIILLFILAVINLIITLVIWAVIRIGPNGCDSMEFHESGLLRFKQVSDMGVIHPLYKSTVGGRRNENLVITGNNQPIVFQQGTTKLSVENNKTSITSDIGMQFFVPRTQNILFSTDYETHEFHLPSGVKSLNVQKASTERITSNATSDLNIKVDGRAIVRGNEGVFIMGKTIEFHMGGNMELKAENSIILNGSVMVSTTRLPSSSSGDQLGSGDWVRYKLCMCADGTLFKVQVTSQNMGCQISDNPCGNTH [D172V], the “SGCB cell-surface expression functional score (log10)” value was 0.26. With MAAAAAAAAEQQSSNGPVKKSMREKAVERRSVNKEHNSNFKAGYIPIDEDRLHKTGLRGRKGNLAICVIILLFILAVINLIITLVIWAVIRIGPNGCDSMEFHESGLLRFKQVSDMGVIHPLYKSTVGGRRNENLVITGNNQPIVFQQGTTKLSVENNKTSITSDIGMQFFYPRTQNILFSTDYETHEFHLPSGVKSLNVQKASTERITSNATSDLNIKVDGRAIVRGNEGVFIMGKTIEFHMGGNMELKAENSIILNGSVMVSTTRLPSSSSGDQLGSGDWVRYKLCMCADGTLFKVQVTSQNMGCQISDNPCGNTH [D172Y] the “SGCB cell-surface expression functional score (log10)” value was -0.12. For MAAAAAAAAEQQSSNGPVKKSMREKAVERRSVNKEHNSNFKAGYIPIDEDRLHKTGLRGRKGNLAICVIILLFILAVINLIITLVIWAVIRIGPNGCDSMEFHESGLLRFKQVSDMGVIHPLYKSTVGGRRNENLVITGNNQPIVFQQGTTKLSVENNKTSITSDIGMQFFTPRTQNILFSTDYETHEFHLPSGVKSLNVQKASTERITSNATSDLNIKVDGRAIVRGNEGVFIMGKTIEFHMGGNMELKAENSIILNGSVMVSTTRLPSSSSGDQLGSGDWVRYKLCMCADGTLFKVQVTSQNMGCQISDNPCGNTH [D172T], the “SGCB cell-surface expression functional score (log10)” value was 0.25. With MAAAAAAAAEQQSSNGPVKKSMREKAVERRSVNKEHNSNFKAGYIPIDEDRLHKTGLRGRKGNLAICVIILLFILAVINLIITLVIWAVIRIGPNGCDSMEFHESGLLRFKQVSDMGVIHPLYKSTVGGRRNENLVITGNNQPIVFQQGTTKLSVENNKTSITSDIGMQFFWPRTQNILFSTDYETHEFHLPSGVKSLNVQKASTERITSNATSDLNIKVDGRAIVRGNEGVFIMGKTIEFHMGGNMELKAENSIILNGSVMVSTTRLPSSSSGDQLGSGDWVRYKLCMCADGTLFKVQVTSQNMGCQISDNPCGNTH [D172W] the “SGCB cell-surface expression functional score (log10)” value was -0.88. In the case of MAAAAAAAAEQQSSNGPVKKSMREKAVERRSVNKEHNSNFKAGYIPIDEDRLHKTGLRGRKGNLAICVIILLFILAVINLIITLVIWAVIRIGPNGCDSMEFHESGLLRFKQVSDMGVIHPLYKSTVGGRRNENLVITGNNQPIVFQQGTTKLSVENNKTSITSDIGMQFFQPRTQNILFSTDYETHEFHLPSGVKSLNVQKASTERITSNATSDLNIKVDGRAIVRGNEGVFIMGKTIEFHMGGNMELKAENSIILNGSVMVSTTRLPSSSSGDQLGSGDWVRYKLCMCADGTLFKVQVTSQNMGCQISDNPCGNTH [D172Q], the “SGCB cell-surface expression functional score (log10)” value is reported as -0.19. For MAAAAAAAAEQQSSNGPVKKSMREKAVERRSVNKEHNSNFKAGYIPIDEDRLHKTGLRGRKGNLAICVIILLFILAVINLIITLVIWAVIRIGPNGCDSMEFHESGLLRFKQVSDMGVIHPLYKSTVGGRRNENLVITGNNQPIVFQQGTTKLSVENNKTSITSDIGMQFFPPRTQNILFSTDYETHEFHLPSGVKSLNVQKASTERITSNATSDLNIKVDGRAIVRGNEGVFIMGKTIEFHMGGNMELKAENSIILNGSVMVSTTRLPSSSSGDQLGSGDWVRYKLCMCADGTLFKVQVTSQNMGCQISDNPCGNTH [D172P], the “SGCB cell-surface expression functional score (log10)” value was -1.12. With MAAAAAAAAEQQSSNGPVKKSMREKAVERRSVNKEHNSNFKAGYIPIDEDRLHKTGLRGRKGNLAICVIILLFILAVINLIITLVIWAVIRIGPNGCDSMEFHESGLLRFKQVSDMGVIHPLYKSTVGGRRNENLVITGNNQPIVFQQGTTKLSVENNKTSITSDIGMQFFKPRTQNILFSTDYETHEFHLPSGVKSLNVQKASTERITSNATSDLNIKVDGRAIVRGNEGVFIMGKTIEFHMGGNMELKAENSIILNGSVMVSTTRLPSSSSGDQLGSGDWVRYKLCMCADGTLFKVQVTSQNMGCQISDNPCGNTH [D172K] the “SGCB cell-surface expression functional score (log10)” value was -0.36.
